Biological target: murine IL12 receptor complex (IL12Rβ1 and IL12Rβ2) (mouse, UniProt Q60837 20-738; P97378 24-874)
Assay: cell-based or functional assay

Sequence of murine IL12 receptor complex (IL12Rβ1 and IL12Rβ2) (Q60837 20-738, chain 1 of 2): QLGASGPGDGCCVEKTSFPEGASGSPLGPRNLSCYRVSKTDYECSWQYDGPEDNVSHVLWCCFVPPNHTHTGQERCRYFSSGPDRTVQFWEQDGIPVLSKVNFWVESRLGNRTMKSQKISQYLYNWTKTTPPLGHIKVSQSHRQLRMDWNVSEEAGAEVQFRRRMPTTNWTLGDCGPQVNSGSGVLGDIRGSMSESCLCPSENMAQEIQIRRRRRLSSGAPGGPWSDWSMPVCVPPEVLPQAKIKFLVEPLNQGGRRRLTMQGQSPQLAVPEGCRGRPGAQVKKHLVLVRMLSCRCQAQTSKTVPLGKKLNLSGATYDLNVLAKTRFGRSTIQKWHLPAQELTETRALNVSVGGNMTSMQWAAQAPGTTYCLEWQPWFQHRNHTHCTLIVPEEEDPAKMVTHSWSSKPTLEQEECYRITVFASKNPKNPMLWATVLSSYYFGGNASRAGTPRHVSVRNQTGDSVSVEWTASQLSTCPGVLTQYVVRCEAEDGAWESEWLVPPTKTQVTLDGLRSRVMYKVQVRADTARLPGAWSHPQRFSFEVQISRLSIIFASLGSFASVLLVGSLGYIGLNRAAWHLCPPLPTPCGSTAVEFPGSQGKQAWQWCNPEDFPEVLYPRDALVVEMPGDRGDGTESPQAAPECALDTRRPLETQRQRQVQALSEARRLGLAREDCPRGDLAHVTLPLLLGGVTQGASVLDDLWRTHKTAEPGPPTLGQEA
Sequence of murine IL12 receptor complex (IL12Rβ1 and IL12Rβ2) (P97378 24-874, chain 2 of 2): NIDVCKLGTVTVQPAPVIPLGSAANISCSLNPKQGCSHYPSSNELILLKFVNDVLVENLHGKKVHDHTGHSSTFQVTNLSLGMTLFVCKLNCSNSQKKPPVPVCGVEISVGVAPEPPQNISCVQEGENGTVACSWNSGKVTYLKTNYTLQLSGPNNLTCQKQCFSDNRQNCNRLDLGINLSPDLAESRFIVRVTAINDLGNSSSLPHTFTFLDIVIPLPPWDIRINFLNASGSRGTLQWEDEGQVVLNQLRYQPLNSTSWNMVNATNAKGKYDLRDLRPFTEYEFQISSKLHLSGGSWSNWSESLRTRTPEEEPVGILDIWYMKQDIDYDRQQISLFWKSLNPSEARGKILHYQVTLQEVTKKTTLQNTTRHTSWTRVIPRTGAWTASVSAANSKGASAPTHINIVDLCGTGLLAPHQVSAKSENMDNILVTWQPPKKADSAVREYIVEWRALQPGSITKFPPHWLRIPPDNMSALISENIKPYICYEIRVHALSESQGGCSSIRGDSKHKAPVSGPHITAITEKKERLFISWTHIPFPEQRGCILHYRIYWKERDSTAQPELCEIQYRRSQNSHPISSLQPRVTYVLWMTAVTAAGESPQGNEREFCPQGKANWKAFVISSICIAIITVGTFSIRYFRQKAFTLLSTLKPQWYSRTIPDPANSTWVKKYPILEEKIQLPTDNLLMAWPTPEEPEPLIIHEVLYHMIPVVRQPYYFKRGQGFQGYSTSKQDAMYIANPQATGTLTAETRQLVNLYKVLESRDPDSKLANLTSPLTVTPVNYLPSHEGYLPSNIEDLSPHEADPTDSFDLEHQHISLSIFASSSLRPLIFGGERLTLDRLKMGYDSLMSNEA

Binder	EC50 (M); STAT3-Luc reporter, CTLL2/STAT3-Luc cells [M]	Fold induction at 20 nM; STAT3-Luc reporter, CTLL2/STAT3-Luc cells [fold]	Max fold induction; STAT3-Luc reporter, CTLL2/STAT3-Luc cells [fold]
Fc-IL12(mutein 1) (Fc fusion) ESKYGPPCPPCPAPPVAGPSVFLFPPKPKDTLMISRTPEVTCVVVDVSQEDPEVQFNWYVDGVEVHNAKTKPREEQFNSTYRVVSVLTVLHQDWLNGKEYKCKVSNKGLPSSIEKTISKAKGQPREPQVYTLPPSQEEMTKNQVSLTCLVKGFYPSDIAVEWESNGQPENNYKTTPPVLDSDGSFFLYSRLTVDKSRWQEGNVFSCSVMHEALHNHYTQKSLSLSLGKGGGGSGGGGSGGGGSMWELEKDVYVVEVDWTPDAPGETVNLTCDTPEEDDITWTSDQRHGVIGSGKTLTITVKEFLDAGQYTCHKGGETLSHSHLLLHKKENGIWSTEILKNFKNKTFLKCEAPNYSGRFTCSWLVQRNMDLKFNIKSSSSSPDSRAVTCGMASLSAEKVTLDQRDYEKYSVSCQEDVTCPTAEETLPIELALEARQQNKYENYSTSFFIRDIIKPDPPKNLQMKPLKNSQVEVSWEYPDSWSTPHSYFSLKFFVRIQRKKEKMKETEEGCNQKGAFLVEKTSTEVQCKGGNVCVQAQDRYYNSSCSKWACVPCRVRSGGGGSGGGGSGGGGSRVIPVSGPARCLSQSRNLLKTTDDMVKTAREKLKHYSCTAEDIDHEDITRDQTSTLKTCLPLELHKNESCLATRETSSTTRGSCLPPQKTSLMMTLCLGSIYEDLKMYQTEFQAINAALQNHNHQQIILDKGMLVAIDELMQSLNHNGETLRQKPPVGEADPARVKMKLCILLHAFSTRVVTINRVMGYLSSA	1.76e-10	4.52	4.52
Fc-IL12(mutein 3) (Fc fusion) ESKYGPPCPPCPAPPVAGPSVFLFPPKPKDTLMISRTPEVTCVVVDVSQEDPEVQFNWYVDGVEVHNAKTKPREEQFNSTYRVVSVLTVLHQDWLNGKEYKCKVSNKGLPSSIEKTISKAKGQPREPQVYTLPPSQEEMTKNQVSLTCLVKGFYPSDIAVEWESNGQPENNYKTTPPVLDSDGSFFLYSRLTVDKSRWQEGNVFSCSVMHEALHNHYTQKSLSLSLGKGGGGSGGGGSGGGGSMWELEKDVYVVEVDWTPDAPGETVNLTCDTPEEDDITWTSDQRHGVIGSGKTLTITVKEFLDAGQYTCHKGGETLSHSHLLLHKKENGIWSTEILKNFKNKTFLKCEAPNYSGRFTCSWLVQRNMDLKFNIKSSSSSPDSRAVTCGMASLSAEKVTLDQRDYEKYSVSCQEDVTCPTAEETLPIELALEARQQNKYENYSTSFFIRDIIKPDPPKNLQMKPLKNSQVEVSWEYPDSWSTPHSYFSLKFFVRIQRKKEKMKETEEGCNQKGAFLVEKTSTEVQCKGGNVCVQAQDRYYNSSCSKWACVPCRVRSGGGGSGGGGSGGGGSRVIPVSGPARCLSQSRNLLKTTDDMVKTAREKLKHYSCTAEDIDHEDITRDQTSTLKTCLPLELHKNESCLATRETSSTTRGSCLPPQKTSLMMTLCLGSIYEDLKMYQTEFQAINAALQNHNHQQIILDKGMLVAIDELMQSLNHNGETLRQKPPVGEADPRRVKMKLCILLHAFSTRVVTINRVMGYLSSA		1.06	1.11
Fc-IL12(mutein 2) (Fc fusion) ESKYGPPCPPCPAPPVAGPSVFLFPPKPKDTLMISRTPEVTCVVVDVSQEDPEVQFNWYVDGVEVHNAKTKPREEQFNSTYRVVSVLTVLHQDWLNGKEYKCKVSNKGLPSSIEKTISKAKGQPREPQVYTLPPSQEEMTKNQVSLTCLVKGFYPSDIAVEWESNGQPENNYKTTPPVLDSDGSFFLYSRLTVDKSRWQEGNVFSCSVMHEALHNHYTQKSLSLSLGKGGGGSGGGGSGGGGSMWELEKDVYVVEVDWTPDAPGETVNLTCDTPEEDDITWTSDQRHGVIGSGKTLTITVKEFLDAGQYTCHKGGETLSHSHLLLHKKENGIWSTEILKNFKNKTFLKCEAPNYSGRFTCSWLVQRNMDLKFNIKSSSSSPDSRAVTCGMASLSAEKVTLDQRDYEKYSVSCQEDVTCPTAEETLPIELALEARQQNKYENYSTSFFIRDIIKPDPPKNLQMKPLKNSQVEVSWEYPDSWSTPHSYFSLKFFVRIQRKKEKMKETEEGCNQKGAFLVEKTSTEVQCKGGNVCVQAQDRYYNSSCSKWACVPCRVRSGGGGSGGGGSGGGGSRVIPVSGPARCLSQSRNLLKTTDDMVKTAREKLKHYSCTAEDIDHEDITRDQTSTLKTCLPLELHKNESCLATRETSSTTRGSCLPPQKTSLMMTLCLGSIYEDLKMYQTEFQAINAALQNHNHQQIILDKGMLVAIDELMQSLNHNGETLRQKPPVGEADPVRVKMKLCILLHAFSTRVVTINRVMGYLSSA	2.6e-10	5.41	5.9
Fc-IL12(mutein 4) (Fc fusion) ESKYGPPCPPCPAPPVAGPSVFLFPPKPKDTLMISRTPEVTCVVVDVSQEDPEVQFNWYVDGVEVHNAKTKPREEQFNSTYRVVSVLTVLHQDWLNGKEYKCKVSNKGLPSSIEKTISKAKGQPREPQVYTLPPSQEEMTKNQVSLTCLVKGFYPSDIAVEWESNGQPENNYKTTPPVLDSDGSFFLYSRLTVDKSRWQEGNVFSCSVMHEALHNHYTQKSLSLSLGKGGGGSGGGGSGGGGSMWELEKDVYVVEVDWTPDAPGETVNLTCDTPEEDDITWTSDQRHGVIGSGKTLTITVKEFLDAGQYTCHKGGETLSHSHLLLHKKENGIWSTEILKNFKNKTFLKCEAPNYSGRFTCSWLVQRNMDLKFNIKSSSSSPDSRAVTCGMASLSAEKVTLDQRDYEKYSVSCQEDVTCPTAEETLPIELALEARQQNKYENYSTSFFIRDIIKPDPPKNLQMKPLKNSQVEVSWEYPDSWSTPHSYFSLKFFVRIQRKKEKMKETEEGCNQKGAFLVEKTSTEVQCKGGNVCVQAQDRYYNSSCSKWACVPCRVRSGGGGSGGGGSGGGGSRVIPVSGPARCLSQSRNLLKTTDDMVKTAREKLKHYSCTAEDIDHEDITRDQTSTLKTCLPLELHKNESCLATRETSSTTRGSCLPPQKTSLMMTLCLGSIYEDLKMYQTEFQAINAALQNHNHQQIILDKGMLVAIDELMQSLNHNGETLRQKPPVGEADPERVKMKLCILLHAFSTRVVTINRVMGYLSSA		1.12	1.16

Continued, values first:

EC50 (M); STAT3-Luc reporter, CTLL2/STAT3-Luc cells [M]	Fold induction at 20 nM; STAT3-Luc reporter, CTLL2/STAT3-Luc cells [fold]	Max fold induction; STAT3-Luc reporter, CTLL2/STAT3-Luc cells [fold]	Binder
8.05e-10	10	10.1	Fc-IL12(mutein 8) (Fc fusion) ESKYGPPCPPCPAPPVAGPSVFLFPPKPKDTLMISRTPEVTCVVVDVSQEDPEVQFNWYVDGVEVHNAKTKPREEQFNSTYRVVSVLTVLHQDWLNGKEYKCKVSNKGLPSSIEKTISKAKGQPREPQVYTLPPSQEEMTKNQVSLTCLVKGFYPSDIAVEWESNGQPENNYKTTPPVLDSDGSFFLYSRLTVDKSRWQEGNVFSCSVMHEALHNHYTQKSLSLSLGKGGGGSGGGGSGGGGSMWELEKDVYVVEVDATPDAPGETVNLTCDTPEEDDITWTSDQRHGVIGSGKTLTITVKEFLDAGQYTCHKGGETLSHSHLLLHKKENGIWSTEILKNFKNKTFLKCEAPNYSGRFTCSWLVQRNMDLKFNIKSSSSSPDSRAVTCGMASLSAEKVTLDQRDYEKYSVSCQEDVTCPTAEETLPIELALEARQQNKYENYSTSFFIRDIIKPDPPKNLQMKPLKNSQVEVSWEYPDSWSTPHSYFSLKFFVRIQRKKEKMKETEEGCNQKGAFLVEKTSTEVQCKGGNVCVQAQDRYYNSSCSKWACVPCRVRSGGGGSGGGGSGGGGSRVIPVSGPARCLSQSRNLLKTTDDMVKTAREKLKHYSCTAEDIDHEDITRDQTSTLKTCLPLELHKNESCLATRETSSTTRGSCLPPQKTSLMMTLCLGSIYEDLKMYQTEFQAINAALQNHNHQQIILDKGMLVAIDELMQSLNHNGETLRQKPPVGEADPYRVKMKLCILLHAFSTRVVTINRVMGYLSSA
1.33e-09	8.93	10.2	Fc-IL12(mutein 11) (Fc fusion) ESKYGPPCPPCPAPPVAGPSVFLFPPKPKDTLMISRTPEVTCVVVDVSQEDPEVQFNWYVDGVEVHNAKTKPREEQFNSTYRVVSVLTVLHQDWLNGKEYKCKVSNKGLPSSIEKTISKAKGQPREPQVYTLPPSQEEMTKNQVSLTCLVKGFYPSDIAVEWESNGQPENNYKTTPPVLDSDGSFFLYSRLTVDKSRWQEGNVFSCSVMHEALHNHYTQKSLSLSLGKGGGGSGGGGSGGGGSMWELEKDVYVVEVDWTPDAPGETVNLTCDTPEEDDITWTSDQRHGVIGSGKTLTITVKEFLDAGQYTCHKGGETLSHSHLLLHKKENGIWSTAILANFANATFLKCEAPNYSGRFTCSWLVQRNMDLKFNIKSSSSSPDSRAVTCGMASLSAEKVTLDQRDYEKYSVSCQEDVTCPTAEETLPIELALEARQQNKYENYSTSFFIRDIIKPDPPKNLQMKPLKNSQVEVSWEYPDSWSTPHSYFSLKFFVRIQRKKEKMKETEEGCNQKGAFLVEKTSTEVQCKGGNVCVQAQDRYYNSSCSKWACVPCRVRSGGGGSGGGGSGGGGSRVIPVSGPARCLSQSRNLLKTTDDMVKTAREKLKHYSCTAEDIDHEDITRDQTSTLKTCLPLELHKNESCLATRETSSTTRGSCLPPQKTSLMMTLCLGSIYEDLKMYQTEFQAINAALQNHNHQQIILDKGMLVAIDELMQSLNHNGETLRQKPPVGEADPYRVKMKLCILLHAFSTRVVTINRVMGYLSSA
	1.04	1.1	Fc-IL12(mutein 12) (Fc fusion) ESKYGPPCPPCPAPPVAGPSVFLFPPKPKDTLMISRTPEVTCVVVDVSQEDPEVQFNWYVDGVEVHNAKTKPREEQFNSTYRVVSVLTVLHQDWLNGKEYKCKVSNKGLPSSIEKTISKAKGQPREPQVYTLPPSQEEMTKNQVSLTCLVKGFYPSDIAVEWESNGQPENNYKTTPPVLDSDGSFFLYSRLTVDKSRWQEGNVFSCSVMHEALHNHYTQKSLSLSLGKGGGGSGGGGSGGGGSNGIWSTEILKNFKNKTFLKCEAPNYSGRFTCSWLVQRNMDLKFNIKSSSSSPDSRAVTCGMASLSAEKVTLDQRDYEKYSVSCQEDVTCPTAEETLPIELALEARQQNKYENYSTSFFIRDIIKPDPPKNLQMKPLKNSQVEVSWEYPDSWSTPHSYFSLKFFVRIQRKKEKMKETEEGCNQKGAFLVEKTSTEVQCKGGNVCVQAQDRYYNSSCSKWACVPCRVRSGGGGSGGGGSGGGGSRVIPVSGPARCLSQSRNLLKTTDDMVKTAREKLKHYSCTAEDIDHEDITRDQTSTLKTCLPLELHKNESCLATRETSSTTRGSCLPPQKTSLMMTLCLGSIYEDLKMYQTEFQAINAALQNHNHQQIILDKGMLVAIDELMQSLNHNGETLRQKPPVGEADPYRVKMKLCILLHAFSTRVVTINRVMGYLSSA

Reference: patent US20230051304A1 (Regeneron, published 2023)
